Kd data for 5 molecules are collected here from US20120003235A1 (published 2012).

Assay [1] concerns the target T1, soluble Flag-tagged LTα1β2 (UniProt P01374 35-205, limits assumed).
T1 construct: Soluble, Flag-tagged heterotrimer captured on anti-Flag M2 in Biacore; also called Ligand
T1 sequence 1: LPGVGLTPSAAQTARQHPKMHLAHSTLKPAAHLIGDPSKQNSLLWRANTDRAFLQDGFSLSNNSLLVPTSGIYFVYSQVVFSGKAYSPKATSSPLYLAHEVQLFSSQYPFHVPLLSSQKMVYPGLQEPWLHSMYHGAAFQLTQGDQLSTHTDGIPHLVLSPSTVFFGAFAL
T1 sequence 2: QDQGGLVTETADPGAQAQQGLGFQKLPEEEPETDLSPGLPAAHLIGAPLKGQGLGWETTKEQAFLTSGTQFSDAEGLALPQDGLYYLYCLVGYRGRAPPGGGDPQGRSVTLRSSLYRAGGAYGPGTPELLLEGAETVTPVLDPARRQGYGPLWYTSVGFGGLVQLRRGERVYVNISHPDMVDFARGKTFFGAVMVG
Briefly: SPR (Biacore 3000), Flag-LTα1β2 captured on anti-Flag M2 chip; apparent affinity of intact antibody.

The target in assay [2] is T1, soluble Flag-tagged LTα1β2. The assay is described as follows: SPR (Biacore 3000), Flag-LTα1β2 captured on anti-Flag M2 chip; LTβR binding site 2. On the technique in general: Surface plasmon resonance follows binding to a sensor surface in real time, without labels.
Assay [3] concerns the target T1, soluble Flag-tagged LTα1β2. The assay is described as follows: SPR (Biacore 3000), Flag-LTα1β2 captured on anti-Flag M2 chip; LTβR binding site 1.
The target of assay [4] is T1, soluble Flag-tagged LTα1β2. The assay is described as follows: SPR (Biacore 3000), Flag-LTα1β2 captured on anti-Flag M2 chip; Fab fragment.

B1: mAb 9B4 (antibody, V domains shown)
VH: QVTLKESGPGILQPSQTLSLTCSFSGFSLSTSGMGVSWIRQPSGKGLEWLAHIYWDDDKRYNPSLRSRLTISKDTSRNQVFLKITSVDTADTATYYCARREGYYGSSFDFDVWGAGTTVTVSS
VL: QIVLSQSPAILSASPGEKVTMTCRASSSVSYMIWYQQKPGSSPKPWIYATSSLASGVPTRFSGSGSGTSYSLTISRVEAADAATYYCQQWSYNPLTFGAGTKLELK
notes: Murine monoclonal antibody; only mature variable domains printed; kappa light chain; also called LT 9B4; LT9B4
As for B1, in assay [1], the Kd is at most 0.3 nM.

B2: monomeric LTβR (receptor, UniProt P36941 28-227, looked up)
chain: SQPQAVPPYASENQTCRDQEKEYYEPQHRICCSRCPPGTYVSAKCSRIRDTVCATCAENSYNEHWNYLTICQLCRPCDPVMGLEEIAPCTSKRKTQCRCQPGMFCAAWALECTHCELLSDCPPGTEAELKDEVGKGNNHCVPCKAGHFQNTSSPSARCQPHTRCENQGLVEAAPGTAQSDTTCKNPLEPLPPEMSGTMLM
notes: Injected at 20 µM in Biacore; also called LTbR
Consider B2, for which the figures for the Kd in assay [2] and in assay [3] were about 1500 nM and about 50 nM, respectively.

B3: mAb LT102 (P1G8.2) (antibody, V domains shown)
VH: EVKLVESGGGLVKPGGSLKLSCAVSGFTFSDYYMYWIRQTPEKRLEWVATIGDGTSYTHYPDSVQGRFTISRDYATNNLYLQMTSLRSEDTALYYCARDLGTGPFAYWGQGTLVTVSA
VL: DVLMTQTPRSLPVSLGDQASISCRSSQNIVHSNGNTYLEWYLQKPGQSPKLLIYKVSNRFSGVPDRFSGSGSGTDFTLKISRVEAEDLGVYYCFQGSHFPWTFGGGTKLEIK
notes: only mature variable domains printed; also called LT012
Consider B3, for which the Kd in assay [1] was at most 0.3 nM.

B4: mAb LT105 (P2E9.7) (antibody, V domains shown)
VH: DVQLQESGPGLVKPSQSLSLTCSVTGYSITSGYYWNWIRQFPGNKLEGMGYISYDGSNNYNPSLKNRISITRDSSKNQFFLKLNSVTAEDSGTYYCARDAYSYGMDYWGQGTSVTVSS
VL: DIVLTQSPASLAVSLGQRATISCRASESVDNYGISFMHWYQQKPGQPPKLLIYRASNLESGIPARFSGSGSRTDFTLTINPVETDDVATFYCQQSNKDPYTFGGGTKLEIK
notes: only mature variable domains printed
Consider B4, for which the Kd in assay [1] was at most 0.3 nM.

B5: LT105 Fab fragment (Fab, V domains shown)
VH: B4 VH
VL: B4 VL
Molecule B5 registered a Kd in assay [4] of at least 2 nM.
